Measured values: patent US20110070156A1 (published 2011)

T1: Trop-2 (EGP-1, epithelial glycoprotein-1) (human, UniProt P09758 27-323)
T1 construct: whole, on cells
T1 sequence (looked up): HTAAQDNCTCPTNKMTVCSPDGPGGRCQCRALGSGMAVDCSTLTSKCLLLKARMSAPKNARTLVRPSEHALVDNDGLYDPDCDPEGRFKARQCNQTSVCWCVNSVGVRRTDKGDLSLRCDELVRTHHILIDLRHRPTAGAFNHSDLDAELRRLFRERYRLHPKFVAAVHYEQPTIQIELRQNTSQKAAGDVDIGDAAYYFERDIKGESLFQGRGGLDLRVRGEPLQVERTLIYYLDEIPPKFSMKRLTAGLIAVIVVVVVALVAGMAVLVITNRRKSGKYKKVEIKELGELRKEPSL


How the values were obtained:
[1] = target: Trop-2 (EGP-1, epithelial glycoprotein-1) (human) (UniProt P09758); assay: ELISA on Trop-2-expressing cell lines PC-3 and Calu-3
[2] = target: Trop-2 (EGP-1, epithelial glycoprotein-1) (human) (UniProt P09758)
[3] = target: Trop-2 (EGP-1, epithelial glycoprotein-1) (human) (UniProt P09758); assay: cell-based or functional assay
[4] = target: T1, Trop-2 (EGP-1, epithelial …); assay: ELISA on Trop-2-expressing cell lines PC-3 and Calu-3; apparent dissociation constant

Molecule	fold of apparent KD against hRS7 [1] [fold]	Kd [2] [nM]	EC50, MTS cell proliferation assay, Calu-3 cells [3] [nM]	EC50, MTS cell proliferation assay, MDA-MB-468 cells [3] [nM]	EC50, MTS cell proliferation assay, ME-180 cells [3] [nM]	EC50, MTS cell proliferation assay, T-47D cells [3] [nM]	Kd [4] [nM]
2L-Rap(Q)-hRS7	2	0.28	8.5	3.8	1.5	2	
hRS7 IgG (humanized RS7, anti-Trop-2 / anti-EGP-1) (antibody, V domains shown) VH: QVQLQQSGSELKKPGASVKVSCKASGYTFTNYGMNWVKQAPGQGLKWMGWINTYTGEPTYTDDFKGRFAFSLDTSVSTAYLQISSLKADDTAVYFCARGGFGSSYWYFDVWGQGSLVTVSS VL: DIQLTQSPSSLSASVGDRVSITCKASQDVSIAVAWYQQKPGKAPKLLIYSASYRYTGVPDRFSGSGSGTDFTLTISSLQPEDFAVYYCQQHYITPLTFGAGTKVEIKR							0.14
